# B1: Cyno FcRn (receptor, Cynomolgus)
# chain 1: AESHLSLLYHLTAVSSPAPGTPAFWVSGWLGPQQYLSYDSLRGQAEPCGAWVWENQVSWYWEKETTDLRIKEKLFLEAFKALGGKGPYTLQGLLGCELSPDNTSVPTAKFALNGEEFMNFDLKQGTWGGDWPEALAISQRWQQQDKAANKELTFLLFSCPHRLREHLERGRGNLEWKEPPSMRLKARPGNPGFSVLTCSAFSFYPPELQLRFLRNGMAAGTGQGDFGPNSDGSFHASSSLTVKSGDEHHYCCIVQHAGLAQPLRVELETPAKSS
# chain 2: IQRTPKIQVYSRHPPENGKPNFLNCYVSGFHPSDIEVDLLKNGEKMGKVEHSDLSFSKDWSFYLLYYTEFTPNEKDEYACRVNHVTLSGPRTVKWDRDM
# notes: also called Cynomolgus FcRn; purified Cyno FcRn
# B2: anti-C5 mAb FMEH-IgG4PLA (antibody)
# heavy: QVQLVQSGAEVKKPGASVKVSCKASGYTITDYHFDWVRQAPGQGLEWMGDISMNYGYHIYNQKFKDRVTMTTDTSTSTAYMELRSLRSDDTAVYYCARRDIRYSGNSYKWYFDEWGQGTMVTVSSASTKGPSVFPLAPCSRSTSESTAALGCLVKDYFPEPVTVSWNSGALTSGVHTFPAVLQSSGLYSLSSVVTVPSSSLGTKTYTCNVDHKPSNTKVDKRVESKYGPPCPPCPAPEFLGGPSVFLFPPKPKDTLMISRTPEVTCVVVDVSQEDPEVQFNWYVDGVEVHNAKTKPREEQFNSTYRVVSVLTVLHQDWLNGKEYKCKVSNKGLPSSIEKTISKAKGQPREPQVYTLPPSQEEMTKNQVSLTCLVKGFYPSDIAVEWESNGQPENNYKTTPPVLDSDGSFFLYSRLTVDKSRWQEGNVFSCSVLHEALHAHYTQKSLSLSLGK
# light: DIQLTQSPSFLSASVGDRVTITCRTSKSISKHLAWYQQKPGKAPKLLIYSGSTLQSGVPSRFSGSGSGTEFTLTISSLQPEDFATYYCQQHNEYPYTFGQGTKLEIK
# notes: also called FMEH PLA; FMEH-PLA; not shown: human light chain constant region
# Key:
# [1] = biological target: T1, anti-C5 mAb/FH SCR1-5 fusion protein FMEH-IgG4PLA-FH1-5 (human, UniProt P08603 19-322, limits assumed); assay: SPR (Biacore-3000), Cyno FcRn amine-coupled on CM5 chip (200 RU), fusion protein as analyte, pH 6.0, bivalent binding model
# T1 construct: domain: SCR 1-5; also called FMEH-FH1-5; FMEH-IgG4PLA-FH SCR1-5; not shown: human light chain constant region
# T1 sequence (P08603 other isoform, or with tags, fused parts or gaps limits assumed): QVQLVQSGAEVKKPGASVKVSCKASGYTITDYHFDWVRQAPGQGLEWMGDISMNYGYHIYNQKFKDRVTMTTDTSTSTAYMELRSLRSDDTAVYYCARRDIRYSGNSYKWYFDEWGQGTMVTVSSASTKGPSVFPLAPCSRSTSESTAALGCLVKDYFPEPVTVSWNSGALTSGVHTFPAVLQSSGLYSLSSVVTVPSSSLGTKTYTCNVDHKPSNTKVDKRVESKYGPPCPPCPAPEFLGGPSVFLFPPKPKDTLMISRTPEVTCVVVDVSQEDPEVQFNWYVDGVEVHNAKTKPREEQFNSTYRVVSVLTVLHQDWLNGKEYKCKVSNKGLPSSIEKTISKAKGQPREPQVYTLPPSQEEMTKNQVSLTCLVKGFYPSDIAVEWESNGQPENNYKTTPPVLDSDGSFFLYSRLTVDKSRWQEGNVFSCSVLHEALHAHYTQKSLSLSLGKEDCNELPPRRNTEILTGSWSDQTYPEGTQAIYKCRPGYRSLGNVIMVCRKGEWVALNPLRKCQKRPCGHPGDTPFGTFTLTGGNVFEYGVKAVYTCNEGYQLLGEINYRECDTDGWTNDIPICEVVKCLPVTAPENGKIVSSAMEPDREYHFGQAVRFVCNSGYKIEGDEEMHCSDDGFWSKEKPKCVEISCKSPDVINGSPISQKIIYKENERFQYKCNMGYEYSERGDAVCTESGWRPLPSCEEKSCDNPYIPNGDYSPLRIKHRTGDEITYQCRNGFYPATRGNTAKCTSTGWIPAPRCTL
# [2] = biological target: T2, human FcRn (human, UniProt P55899 24-297; P61769 21-119, limits assumed); assay: SPR (Biacore-3000), human FcRn amine-coupled on CM5 chip (280 RU), antibody as analyte, pH 6.0, bivalent binding model
# T2 construct: also called purified human FcRn
# Procedure: Biacore analysis was performed on a Biacore-3000 instrument. The chip was regenerated between each binding using 7.4 pH Buffer.
# The carboxylated dextran matrix of a CM5 sensor chip was used to couple the purified human or Cyno FcRn, by amine coupling chemistry to obtain 280 RU or 200 RU surface density, respectively. […] The data were analyzed by the BIA evaluation software 3.2 assuming bivalent binding model.
# [3] = biological target: B1; assay: SPR (Biacore-3000), Cyno FcRn amine-coupled on CM5 chip (200 RU), antibody as analyte, pH 6.0, bivalent binding model
# Procedure: Purified Cyno FcRn was coupled onto CM5 chip using the amine coupling method(200RU). Biacore analysis was performed on a Biacore-3000 instrument. The chip was regenerated between each binding using 7.4 pH Buffer.
# Affinity analysis of FMEH-IgG4PLA and FMEH-IgG4PLA-FH1-5 to human or Cynomolgus FcRn: Surface Plasmon resonance analysis was used to measure the association and dissociation rate constant for binding of FMEH-IgG4PLA and FMEH-IgG4PLA-FH1-5 to immobilized human or Cyno FcRn, using BIAcore 3000 instrument (Biacore AB, Uppsala, Sweden) and all Biacore experiments were performed at 25° C. The carboxylated dextran matrix of a CM5 sensor chip was used to couple the purified human or Cyno FcRn, by amine coupling chemistry to obtain 280 RU or 200 RU surface density, respectively. […] The data were analyzed by the BIA evaluation software 3.2 assuming bivalent binding model.
Kd [1] [nM],Kd [2] [nM],Kd [3] [nM],Binder
39.1,–,–,B1
–,6.47,14,B2
